# Results from the DeepSol protein solubility set.
# Assay: soluble on expression in E. coli; label from the status in PepcDB or PDB records
row,Sequence,soluble on expression in E. coli
1,MAHHHHHHMPCNVSCSTSPNSVTGEPRFIMDFSMNKVAKYFRLLGYDTLCSRDVPQANLIPTACAEGRILVTCSRPLARSVQLHNQRVRTMRLGIAKAMTGAAHHVIAYDSDGESIYSEDSEEVDVELRCLFTQQWCSGEFKRAMIELIQQAGVTYDLNRVFRRCVTCNELLVTMEKEEVRGRVVAKIYEIYDEFTECPTCRKVFWGFDGVFAINYKSFRSLNLLRSLCICAGAPVEEERTRLNRLRCFRSFPRIAKVLIFSYLEDVDLANMTVVFPALRDLAEEVQASRQTGEPVRKMQLRKH,not soluble
2,MGSDKIHHHHHHMKDILVIGATGKQGNAVVKQLLEDGWYVSALTRNKNNRKLSDIGHPHLSIVEGDLSDNVSLQSAMKGKYGLYSIQPIVKDDVSEELRQGMKIIEIAEQENIQHIVYSTAGGVNRNRTGPHFEVLAKIENRLMESNINATVIKPSFFMDNFLRIAKVEDERITLPEFINPNIKFTMISSIDIAKIASYIFAHPQSFTHQSIEIGSDEVTLSEAATIFSEVTGKSTVIEGEFVSGVAEKQWLEEKGYEVDFELMAEINPTRLSLSDWLKVQNYNK,not soluble
3,MEGIIDKENERVRRFFALLDDMEKKVERLARDNRPPFNGERFLTDRELSGMLKISRRCLQDYRDQGRIPYIQLGGKILYRQSDIERLLEENYHPALV,not soluble
4,MSQQVTMSFSVVPQAKTKDVYSVVDKAIEVVQQSGVRYEVGAMETTLEGELDVLLDVVKRAQQACVDAGAEEVITSIKIHYRPSTGVTIDEKVWKYRDEYAKPEAI,soluble
5,MPVHSRGDKKETNHHDEMEVDYAENEGSSSEDEDTESSSVSEDGDSSEMDDEDCERRRMECLDEMSNLEKQFTDLKDQLYKERLSQVDAKLQEVIAGKAPEYLEPLATLQENMQIRTKVAGIYRELCLESVKNKYECEIQASRQHCESEKLLLYDTVQSELEEKIRRLEEDRHSIDITSELWNDELQSRKKRKDPFSPDKKKPVVVSGPYIVYMLQDLDILEDWTTIRKAMATLGPHRVKTEPPVKLEKHLHSARSEEGRLYYDGEWYIRGQTICIDKKDECPTSAVITTINHDEVWFKRPDGSKSKLYISQLQKGKYSIKHS,soluble
6,MSQLLQDYLNWENYILRRVDFPTSYVVEGEVVRIEAMPRLYISGMGGSGVVADLIRDFSLTWNWEVEVIAVKDYFLKARDGLLIAVSYSGNTIETLYTVEYAKRRRIPAVAITTGGRLAQMGVPTVIVPKASAPRAALPQLLTAALHVVAKVYGIDVKIPEGLEPPNEALIHKLVEEFQKRPTIIAAESMRGVAYRVKNEFNENAKIEPSVEILPEAHHNWIEGSERAVVALTSPHIPKEHQERVKATVEIVGGSIYAVEMHPKGVLSFLRDVGIASVKLAEIRGVNPLATPRIDALKRRLQ,soluble
7,MLKRTRSLVCLCLAAAISSPTTYANSIDLPDIGTAAGGTLSIDQELIYGDAYMRMLRASKPIVNDPVINEYIDSLGHRLVANANDVKTPFHFFMIRDRNINAFAFFGGYVALHSGLFLHARSESELASVVAHEIAHVTQRHLARSMEDQARRSPATLAALAGALLLSIASPEAGMAAITAATAGNMQSQINYTRSNEKEADRFGIATLAKAGFDVQAMPRFFGRLADEYRYASKPPPMLLTHPLPEDRVADSRQRAQAYPPMRIAPSIDYHLARARIVARYAGIDGQAALGWFERTQKKASADIMPSFDYGRALVHLDNKRLSQAEPILKKLLAQDPGNPFYLDAMTDLYIEKKQPQKAVELLNSALKRNPQNKVLTINYANALLEANQNDQAVRTLQRYTHDNPEDSNGWQLLSKGYHALGRSDEELAARAEILALRANWNKAIQYYSEASKMAELGSLEQARYDARIDQLMIQRDRFMALQLEHHHHHH,soluble
8,MAKKVKVITDPEVIKVMLEDTRRKILKLLRNKEMTISQLSEILGKTPQTIYHHIEKLKEAGLVEVKRTEMKGNLVEKYYGRTADVFYINLYLGDEELRYIARSRLKTKIDIFKRLGYQFEENELLNIMDRMSQKEFDATVRISKYIEEKEDALKDFSNEDIIHAIEWLSTAELARDEEYLELLKRLGSILKR,soluble
9,AHHHHHHGSYVIIMGAGRIGTLVAKMLENSGHDVAIIEMNKDRARAVSDIVSGLVIEGDATDQNILESANVRNADAFVALTGKDDANILACILAKHLNPRIMTILRITDPRKKKIFEEVKDLKKYFDVVVSPEDIAANYIFRVVITPGFDRVLLPREGAEIIQFHIDENSKVAGKAVKDLNLPRDSLIIAIYDEKGNLIIPSGETILPKRGTVVVFAKDSALKEIKKIMEEKVEESEE,soluble
10,MEAEVDKLELMFQKAESDLDYIQYRLEYEIKTNHPDSASEKNPVTLLKELSVIKSRYQTLYARFKPVAVEQKESKSRICATVKKTMNMIQKLQKQTDLELSPLTKEEKTAAEQFKFHMPDL,not soluble
11,MGSDKIHHHHHHMGRMKNTFPFVITISRQLGAGGAYIGQQLAKKLSIFYADREIIGQAARKLSVMEEELEPRDEKSLSLWQFLIQSCACTPETSYIPPQITVPSDRELFKTESEIITRIAQEHSTVIIGRCGSYILREHPNHVSMFLHGDLSFRKSRIQKIYHVSENVAEKMIVQSDEERSQYHYKFTGKDWADARQYGLSVNTGRTGVDKTVDCILTYLELIKVRDCIP,not soluble
12,MSYKGSSIPVCSRISSLYFFSVYLQDLADMEDRTSTSRCSSTTRIKPTKIAGFGTVPLLSSAGTNQSVLSTKSAKSCLSNTIAASMTEPQVSMTQVDRMYEDNLARKKRSMVAVSEFNKIYGQEYHPPSSSESTRSFYENIDAVYPSSKASESSSSSASTGSSDNRKDIEKWEKLDSEAESDIELFIKVSDCFD,not soluble
13,MGSDKIHHHHHHMKQYLRLRAFKAISFDLDDTLYHNTPYLQLATDKFFAFLNQNYPKTQTLHAQGWLTIKHDLFDLHPELKHDTSAARYAMVHDGLMSLGYKESEASEGAQKSMACFHFYRSDFTLDDKVLNLLKQLAESVTLVGISNGNVDASRIGLSESLAFVQHPGHGVKMKPHGDMFELACQRLNISPAELLHVGDHQMADVSGARRAGCQSVWFNPEKHPLTRRTGSILPHVELDDLNKLLNLV,not soluble
14,LNIHVTIREATEGDLEQMVHMLADDVLGRKRERYEKPLPVSYVRAFKEIKKDKNNELIVACNGEEIVGMLQVTFTPYLTYQGSWRATIEGVRTHSAARGQGIGSQLVCWAIERAKERGCHLIQLTTDKQRPDALRFYEQLGFKASHEGLKMHF,soluble
15,MSGAESYRHITVLLNEAVDALAVREDGVYVDGTFGRGGHSRLILSRLGDAGRLIVFDKDPQAIAVAEELARSDKRVGVVHGGFASFQTALDGLGIGKVDGALFDLGISSPQIDDGSRGFSFRFDAPLDMRMDTTRGMSAAEWIAVASEQDLHEVIKNYGEERFSRQIARAIVAQRAESPIDTTRKLAQIVAQNVRTRERGQDPATRTFQAIRIFINRELEEVGAVLPQVMCRLKEGGRLAVIAFHSLEDRIVKQFVKKYSQHAPLPRWAAVREADLPEPPLKIAGRALKPGEAEIAANPRARSAVLRVAERTAGPIPEQSQRKTSEWQLEHHHHHH,not soluble
16,MAEGQIIKALSGFYYVLSEGRVFQCRGRGVFRKKKVTPLVGDRVVFQATSETEGYILEIGERQNELVRPPIANVEQAILVFSAVSPDFSAKLLDRFLVLVESKRIAPIIVISKIDLLDGESKEEIARYVHDYRSIGYDVIETSAVTKGGLDELALRLRGRVSVVAGQSGVGKSSLLNALRPDLRLKTGDISTHLGRGKHTTRHVELLEVAGGLVADTPGFGALEFDQIELDELPHYFPEFRTYGEGCKFRGCLHIAEPKCAVREAVEAGEIPSYRYDHYVSFVAEMKERKPRY,not soluble
17,MSLGRQEMDEHVAIETPYAIALNDRVIGSSMVLPVDLEEFGAGFLFGQGYIKKAEEIREILVCPQGRISVYADVENEEPREVIITSGCGGTGKIPKEMLEGEFAPLADYCLPFAEIKSFIREALHSSPLGPQTHCVHGCGLWNNGRLQVYHEDVGRHNAVDKVLGSILLGRASNNSAVYTTGRLTSDMVLKCARIGIPIIMSRTSPSSLGLALAKRSGATLVAYSRPERINVFNAPERILTEGHHHHHH,not soluble
